Assay results taken from PMC8564539.

Legend:
Test in all cases: AlphaScreen or HTRF; ALPHA: FLAG-tagged domain mixed with biotin-tagged domain (cell-free translation mixtures), streptavidin donor beads, anti-DYKDDDDK antibody with protein A acceptor beads; 100 mM Tris-HCl pH 8.0, 0.01% Tween 20, 1 mg/mL BSA; 25 °C, 24 h; median of duplicate reactions
CASP8_DED1 (human) = CASP8_DED1 (human) (UniProt Q14790)
CASP1_CARD (human) = CASP1_CARD (human) (UniProt P29466)
NLRC4_CARD (human) = NLRC4_CARD (human) (UniProt Q9NPP4)
Sequence of NLRC4_CARD (human) (Q9NPP4 1-88): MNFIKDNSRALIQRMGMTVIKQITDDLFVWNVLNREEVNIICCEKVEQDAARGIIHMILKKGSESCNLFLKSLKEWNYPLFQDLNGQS

CASP8_DED1-DED2 (human) = CASP8_DED1-DED2 (human) (UniProt Q14790)
TNFRSF1A_DD (human) = TNFRSF1A_DD (human) (UniProt P19438)
Sequence of TNFRSF1A_DD (human) (P19438 356-441): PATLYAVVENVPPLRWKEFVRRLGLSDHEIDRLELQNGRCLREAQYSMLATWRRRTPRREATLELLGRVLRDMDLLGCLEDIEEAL

RIPK1_DD (human) = RIPK1_DD (human) (UniProt Q13546)
Sequence of RIPK1_DD (human) (Q13546 583-669): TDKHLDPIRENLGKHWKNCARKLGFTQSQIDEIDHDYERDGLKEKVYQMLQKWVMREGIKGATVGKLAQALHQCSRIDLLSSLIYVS

CASP10_DED1-DED2 (human) = CASP10_DED1-DED2 (human) (UniProt Q92851)
CFLAR_DED1-DED2 (human) = CFLAR_DED1-DED2 (human) (UniProt O15519)
TRADD_DD (human) = TRADD_DD (human) (UniProt Q15628)
Sequence of TRADD_DD (human) (Q15628 179-289): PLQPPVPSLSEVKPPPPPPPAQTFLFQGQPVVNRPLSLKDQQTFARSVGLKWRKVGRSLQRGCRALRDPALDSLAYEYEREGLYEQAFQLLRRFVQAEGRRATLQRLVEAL

FADD_DED-DD (human) = FADD_DED-DD (human) (UniProt Q13158)
Sequence of FADD_DED-DD (human) (Q13158 whole entry): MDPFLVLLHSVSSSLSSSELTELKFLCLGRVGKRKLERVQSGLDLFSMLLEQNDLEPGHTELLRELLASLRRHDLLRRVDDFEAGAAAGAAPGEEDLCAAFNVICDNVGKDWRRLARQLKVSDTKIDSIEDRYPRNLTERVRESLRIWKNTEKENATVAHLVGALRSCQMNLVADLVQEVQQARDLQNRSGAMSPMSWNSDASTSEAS

ASC_PYD-CARD (human) = ASC_PYD-CARD (human) (UniProt Q9ULZ3)
Sequence of ASC_PYD-CARD (human) (Q9ULZ3 whole entry): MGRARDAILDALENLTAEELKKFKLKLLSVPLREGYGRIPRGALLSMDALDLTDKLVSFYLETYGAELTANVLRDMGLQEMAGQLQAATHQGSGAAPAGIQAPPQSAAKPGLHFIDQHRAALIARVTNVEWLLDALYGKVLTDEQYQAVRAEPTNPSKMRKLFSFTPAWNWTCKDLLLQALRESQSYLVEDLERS

IRAK3_DD (human) = IRAK3_DD (human) (UniProt Q9Y616)
Sequence of IRAK3_DD (human) (Q9Y616 whole entry): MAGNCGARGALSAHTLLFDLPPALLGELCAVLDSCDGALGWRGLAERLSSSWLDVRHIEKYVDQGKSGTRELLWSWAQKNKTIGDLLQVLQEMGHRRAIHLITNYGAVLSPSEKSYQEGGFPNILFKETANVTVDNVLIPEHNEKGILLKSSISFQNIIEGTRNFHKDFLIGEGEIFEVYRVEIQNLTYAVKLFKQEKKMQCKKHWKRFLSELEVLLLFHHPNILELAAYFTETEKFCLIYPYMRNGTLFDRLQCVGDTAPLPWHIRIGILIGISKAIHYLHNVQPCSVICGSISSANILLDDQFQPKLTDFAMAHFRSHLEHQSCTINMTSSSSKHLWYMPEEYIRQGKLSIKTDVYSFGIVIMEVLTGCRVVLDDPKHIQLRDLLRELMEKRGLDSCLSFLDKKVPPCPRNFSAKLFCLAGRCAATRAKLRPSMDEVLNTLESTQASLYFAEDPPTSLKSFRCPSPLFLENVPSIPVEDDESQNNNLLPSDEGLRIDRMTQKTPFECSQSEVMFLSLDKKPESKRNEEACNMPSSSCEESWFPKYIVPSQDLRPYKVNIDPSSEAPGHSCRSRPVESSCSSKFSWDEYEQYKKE

PYDC2_PYD (human) = PYDC2_PYD (human) (UniProt Q56P42)
Sequence of PYDC2_PYD (human) (Q56P42 whole entry): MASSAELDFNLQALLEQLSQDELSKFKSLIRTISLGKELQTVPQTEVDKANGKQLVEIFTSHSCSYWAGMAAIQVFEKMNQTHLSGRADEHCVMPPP

DAPK1_DD (human) = DAPK1_DD (human) (UniProt P53355)
Sequence of DAPK1_DD (human) (P53355 1312-1396): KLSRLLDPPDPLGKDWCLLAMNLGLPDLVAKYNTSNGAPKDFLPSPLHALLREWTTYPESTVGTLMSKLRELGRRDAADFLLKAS

CASP2_CARD (human) = CASP2_CARD (human) (UniProt P42575)
Sequence of CASP2_CARD (human) (P42575 32-121): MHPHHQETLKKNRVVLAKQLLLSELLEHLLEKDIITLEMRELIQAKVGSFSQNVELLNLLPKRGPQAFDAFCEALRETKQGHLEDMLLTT

Sequence of FADD_DED-DD (Q13158 whole entry, the tested form may be a part): as the sequence (Q13158 whole entry) above
Sequence of CRADD_CARD-DD (P78560 whole entry, the tested form may be a part): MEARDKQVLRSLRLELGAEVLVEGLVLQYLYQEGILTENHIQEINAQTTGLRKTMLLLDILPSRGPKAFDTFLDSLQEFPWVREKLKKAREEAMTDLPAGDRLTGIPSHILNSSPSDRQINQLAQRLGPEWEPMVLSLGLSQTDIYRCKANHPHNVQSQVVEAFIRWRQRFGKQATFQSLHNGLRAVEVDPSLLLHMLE
Sequence of CASP1_CARD (human) (P29466 1-91): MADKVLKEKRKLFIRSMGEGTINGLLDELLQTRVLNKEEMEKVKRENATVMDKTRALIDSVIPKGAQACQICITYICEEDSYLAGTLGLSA
Sequence of CASP1_CARD (P29466 1-91): as above

“IRAK3_DD (from UniProt Q9Y616 1-596) (domain or fragment)” showed an ALPHA signal (RLU) (CASP8_DED1 (human)) of 1350 RLU.
In the case of “ASC_PYD-CARD (from UniProt Q9ULZ3 1-195) (domain or fragment)”, the ALPHA signal (RLU) (CASP1_CARD (human)) is reported as 1730 RLU and the ALPHA signal (RLU) (NLRC4_CARD (human)) is reported as 1690 RLU.
Work on “FADD_DED-DD (from UniProt Q13158 1-208) (domain or fragment)” yielded an ALPHA signal (RLU) (CASP8_DED1-DED2 (human)) of 11000 RLU, an ALPHA signal (RLU) (TNFRSF1A_DD (human)) of 964 RLU and an ALPHA signal (RLU) (RIPK1_DD (human)) of 20000 RLU. The ALPHA signal (RLU) (CASP10_DED1-DED2 (human)) was 20700 RLU, the ALPHA signal (RLU) (CFLAR_DED1-DED2 (human)) was 20100 RLU and the ALPHA signal (RLU) (TRADD_DD (human)) was 39600 RLU.
Substance “TRADD_DD (from UniProt Q15628 179-289) (domain or fragment)” has an ALPHA signal (RLU) (FADD_DED-DD (human)) of 31700 RLU.
With “CASP1_CARD (from UniProt P29466 1-91) (domain or fragment)” the ALPHA signal (RLU) (ASC_PYD-CARD (human)) was 4880 RLU.
Work on “TNFRSF1A_DD (from UniProt P19438 356-441) (domain or fragment)” yielded an ALPHA signal (RLU) (FADD_DED-DD (human)) of 5570 RLU.
“CASP8_DED1 (from UniProt Q14790 2-80) (domain or fragment)” gave an ALPHA signal (RLU) (IRAK3_DD (human)) of 968 RLU.
In the case of “DAPK1_DD (from UniProt P53355 1312-1396) (domain or fragment)”, the ALPHA signal (RLU) (PYDC2_PYD (human)) is reported as 3540 RLU.
“CASP10_DED1-DED2 (from UniProt Q92851 19-187) (domain or fragment)” showed an ALPHA signal (RLU) (FADD_DED-DD (human)) of 10200 RLU.
In the case of “PYDC2_PYD (from UniProt Q56P42 1-97) (domain or fragment)”, the ALPHA signal (RLU) (DAPK1_DD (human)) is reported as 970 RLU.
In the case of “CASP8_DED1-DED2 (from UniProt Q14790 1-177) (domain or fragment)”, the ALPHA signal (RLU) (FADD_DED-DD (human)) is reported as 9380 RLU.
“CRADD_CARD-DD (from UniProt P78560 1-199) (domain or fragment)” showed an ALPHA signal (RLU) (CASP2_CARD (human)) of 2420 RLU.
“RIPK1_DD (from UniProt Q13546 583-669) (domain or fragment)” gave an ALPHA signal (RLU) (FADD_DED-DD (human)) of 30600 RLU.
